In patent US20170015742A1 (published 2017):
“And” between values parts separate entries of the source, which are not always exact repeats. Equal values may be shown once.

B1: hBDI-5H1.16 (antibody, V domains shown)
VH: EVTLKESGPALVKPTQTLTLTCTFSGFSLSTFGMGVGWIRQPPGKGLEWLANIWWDDDKYYNPSLKNRLTISKDTSNSQAVLTITNMDPVDTATYYCARISTGISSYYVMDAWGQGTTVTVSS
VL: EFVLTQSPGTLSLSPGERATLSCERSSGDIGDTYVSWYQQKPGQPPRNVIYGNDQRPSGVPDRFSGSGSGTDFTLTISRLEPEDFAVYFCQSYDSDIDIVFGGGTKVEIK
B2: hBDI-5H1.17 (antibody, V domains shown)
VH: EVTLKESGPALVKPTQTLTLTCTFSGFSLSTFGMGVGWIRQPPGKGLEWLANIWWDDDKYYNPSLKNRLTISKDTSNSQAVLTITNMDPVDTATYYCARISTGISSYYVMDAWGQGTTVTVSS
VL: EFVLTQSPGTLSLSPGERATLSCERSSGDIGDSYVSWYQQKPGQAPRLVIYADDQRPSGIPDRFSGSGSGTDFTLTISRLEPEDFAVYYCQSYDINIDIVFGGGTKVEIK
B3: hBFU-3E2.1 (antibody, V domains shown)
VH: EVQLVQSGAEVKKPGSSVKVSCKASGYTFTESYMYWVKQAPGQGLELIGRIDPEDGSTDYVEKFKNKATLTADKSTSTAYMELSSLRSEDTAVYFCARFGARSYFYPMDAWGQGTTVTVSS
VL: ETVLTQSPATLSLSPGERATLSCRASESVSTLMHWYQQKPGQQPRLLIYGASNLESGVPARFSGSGSGTDFTLTISSLEPEDFAVYFCQQSWNDPWTFGGGTKVEIK
B4: hBFU-3E2.2 (antibody, V domains shown)
VH: EVQLVQSGAEVKKPGSSVKVSCKASGYTFTESYMYWVRQAPGQGLELIGRIDPEDGSTDYVEKFKNRVTLTADKSTSTAYMELSSLRSEDTAVYYCARFGARSYFYPMDAWGQGTTVTVSS
VL: ETVLTQSPATLSLSPGERATLSCRASESVSTLMHWYQQKPGQQPRLLIYGASNLESGVPARFSGSGSGTDFTLTISSLEPEDFAVYFCQQSWNDPWTFGGGTKVEIK
B5: hBFU-3E2.3 (antibody, V domains shown)
VH: EVQLVQSGAEVKKPGSSVKVSCKASGYTFTESYMYWVKQAPGQGLELIGRIDPEDGSTDYVEKFKNKATLTADKSTSTAYMELSSLRSEDTAVYFCARFGARSYFYPMDAWGQGTTVTVSS
VL: ATQLTQSPSSLSASVGDRVTISCRASESVSTLMHWYQQKPGKQPRLLIYGASNLESGVPSRFSGSGSGTDFTLTISSLQPEDFATYFCQQSWNDPWTFGGGTKVEIK
B6: hBFU-3E2.4 (antibody, V domains shown)
VH: EVQLVQSGAEVKKPGSSVKVSCKASGYTFTESYMYWVRQAPGQGLELIGRIDPEDGSTDYVEKFKNRVTLTADKSTSTAYMELSSLRSEDTAVYYCARFGARSYFYPMDAWGQGTTVTVSS
VL: ATQLTQSPSSLSASVGDRVTISCRASESVSTLMHWYQQKPGKQPRLLIYGASNLESGVPSRFSGSGSGTDFTLTISSLQPEDFATYFCQQSWNDPWTFGGGTKVEIK
B7: BEW-9C2-D6 (antibody, IgG2b, V domains shown)
VH: QIQLVQSGPELKKPGESVKVSCKASGYTFTNYGIHWVKQAPGQGLQYVGWINTETGRPTYADDFKGRFVFFLETSASTAYLQINNLKNEDMATYFCARPLYYGYAHYFDYWGQGVMVTVSS
VL: DIQMTQSPASLSASLEEIVTITCQASQDIGNWLAWYQQKPGKSPQLLIYGATSLADGVPSRFSGSRSGTQYSLKISRLQVEDIGIYYCQQASSVTYTFGAGTKLELK
B8: BEW-9D2-E8 (antibody, IgG2a, V domains shown)
VH: QIQLVQSGPELKKPGESVKISCKASGYTFTNYGMYWVKLAPGQGLQYLGWINTETGKPTYADDFKGRFVFFLETSASTAYLQINNLRNEDMATYFCARPSDYYDGFWFAYWGQGTLVTVSS
VL: DTVLTQSPALTVSPGERVSISCRASEWVNSYMHWYQQNPGQQPKLLIYKASNLASGVPARFSGSGSGTDFTLTLDPVEADDTATYFCQQSWNDPLTFGSGTKLEIK
B9: BEW-9E3-B9 (antibody, IgG2a, V domains shown)
VH: QIQLVQSGPELKKPGESVKISCKASGYTFTNYGMYWVKQAPGQGLQYMGWINTETGKPTYADDFKGRFVFFLETSASTAFLQINNLKNEDMATYFCARPSDYYDGFWFPYWGQGALVTVSS
VL: DTILTQSPALAVSPGERISISCRASEGVNSYMHWYQQNPGQQPKLLIYKASNLASGVPARFSGSGSGTDFTLTIDPVEADDTATYFCQQSWNDPLTFGSGTKLEIK
B10: BEW-1B4-C4 (antibody, IgG2b, V domains shown)
VH: QIQLVQSGPELKKPGESVKISCKASGYSFTNYGMYWVKQAPGQGLQYMGWIDTETGKPTYTDDFKGRFVFFLETSASTAYLQINNLKNEDMATYFCARWSGDTAGIRGPWFAYWGQGTLVTVSS
VL: DIRMTQSPASLSASLGETVNIECLASEDIYSDLAWYQQKPGKSPQLLIYNANDLQKGVPSRFSGSGSGTQYSLKINSLQSEDVATYFCQQYNYYPGTFGAGTKLELK
notes: Rat hybridoma monoclonal antibody
B11: BEW-9E10-E7 (antibody, IgG2a, V domains shown)
VH: QIQLLQSGPELKKPGESVKISCKASGYTFTNYGMYWVKQAPGQGLQYMGWIDTETGRPTYADDFKGRFVFFLETSASTAYLQINNLKNEDMATYFCARWSGDTTGIRGPWFAYWGQGTLVTVSS
VL: DIRMTQSPASLSASLGETVNIECLASEDIYSDLAWYQQKPGRSPQLLIYNANGLQNGVPSRFGGSGSGTQYSLKINSLQSEDVATYFCQQYNYFPGTFGAGTKLELK
B12: BEW-9E7-B4 (antibody, IgG2b, V domains shown)
VH: QIQLVQSGPELKKPGESVKISCKASGYTFTNYGMYWVKQAPGQGLQYMGWIDTETGKPTYADDFKGRFVFFLETSASTAYLQINNLRNEDMATYFCARWGYTSDYYYGWFPDWGQGTLVTVST
VL: DTVLTQSPALAVSPGERVSISCRASEGVNSYMHWYQQNPGQQPKLLIYKASNLASGVPARFSGSGSGTDFTLNIHPVEADDTATYFCQQNWNVPLTFGSGTKLEIK
B13: BEW-10H2-B9 (antibody, IgG2b, V domains shown)
VH: QIQLVQSGPELKKPGESVKISCKASGYSFTNFGLYWVKQAPGQGLQYMGWIDTETGKPTYADDFRGRFVFFLETSASTAYLQINNLKNEDMATYFCARVYGYPSWYFDFWGPGTMVTVSS
VL: DIQMTQSPASLSTSLEEIVTITCQASQDIDNYLSWYQQKPGKSPQLLIHSATSLADGVPSRFSGSRSGTQFSLKIHRLQVEDTGIYYCLQHFFPPWTFGGGTKLELK
B14: BDB-4G8-D4 (antibody, IgG2b, V domains shown)
VH: QIQLVQSGPELKKPGESVKISCKASGYTFTNYGMYWVKQAPGQGLQYMGWINTETGKPTYADDFKGRFVFFLETSASTAYLQINNLKNEDMATYFCARTNYYYRSYIFYFDYWGQGTMVTVSS
VL: DTVLTQSPALAVSPGERVSISCRASESVSTHMHWYQQKPGQQPKLLIYGASNLESGVPARFSGSGSGTDFTLTIDPVEADDTATYFCQQSWNDPFTFGAVTKLELK
B15: BED-4G10-C8 (antibody, IgG2b, V domains shown)
VH: QVQLQQSGTELVKPGSSVKISCKASGYTFTSNYMHWIRQQPGNGLEWIGWIYPGDGDTNYNHNFNGKATLTADKSSSTAYMQLSSLTSEDFAVYFCASSTRAIPGWFTYWGQGTLVTVSS
VL: DTVLTQSPALAVSPGERVSISCWASESVSTLMHWYQQKLGQQPKLLIYGASNLESGVPARFRGSGSGTDFTLTIDPVEADDTATYFCQQSWSDPYTFGAGTKLELK
B16: BEW-1B10-B9-C3 (antibody, IgG2a, V domains shown)
VH: EVQLVESGGGLVQPGRSLKLSCAASGFSFSKYDMAWFRQTPTKGLEWVASITTSGVGTYYRDSVKGRFTVSRDNAKSTLYLQMDSLRSEDTATYYCARGYGAMDAWGQGTSVTVSS
VL: DIQMTQSPASLSASLEEIVTITCKASQDIDDYLSWYQQKPGKSPQLVIYAATRLADGVPSRFSGSGSGTQYSLKISRLQVDDSGIYYCLQSSSTPWTFGGGTNLELK
B17: BEW-1E3-D6 (antibody, IgG2b, V domains shown)
VH: QIQLVQSGPELKKPGESVKISCKASGYPFTNSGMYWVKQAPGQGLQYMGWINTEAGKPTYADDFKGRFVFFLETSASTAYLQINNLKNEDMATYFCARWGYISDNSYGWFDYWGQGTLVTVSS
VL: DTVLTQSPALAVSPGERVSISCRASEGVYSYMHWYQQNPGQQPKLLIYKASNLASGVPARFSGSGSGTDFTLTIDPVEADDTATYFCHQNWNDPLTFGSGTKLEIK
B18: BEW-3A1-D10-G9 (antibody, IgG2b, V domains shown)
VH: QVQLEQSGAELVKPGTSVKLSCMASGYTSSSNHMNWMKQTTGQGLEWIGIINPGSGGTRYNVKFEGKATLTVDKSSSTAFMQLNSLTPEDSAVYYCARAGFPGPFSYYAMGAWGQGTSVTVSS
VL: DIQMTQSPPVLSASVGDRVTLSCKASQNIHNNLDWYQQKHGEAPKLLIFYTNNLQTGIPSRFSGSGSGTDYTLTISSLQPEDVATYYCYQYNSGYTFGAGTKLELK
B19: BEW-5C3-E7 (antibody, IgG2b, V domains shown)
VH: QIQLVQSGPELKKPGESVKISCKASGYTFTNYGVYWVKQAPGQGLQYMGWINTETGKPTYADDFKGRFVFFLETSTNTAYLQINNLKNEDMATFFCARARQLDWFVYWGQGTLVTVSS
VL: DTVLTQSPALTVSPGERVSISCRARESLTTSLCWFQQKPGQQPKLLIYGASKLESGVPARFSGSGSGTDFTLTIDPVEADDTATYFCQQSWYDPPTFGGGTKLELK

What follows are binders tested against recombinant human PDGF-BB (human, UniProt P01127 82-190) (assay: cell-based or functional assay).
recombinant human PDGF-BB, sequence (P01127 82-190 limits assumed): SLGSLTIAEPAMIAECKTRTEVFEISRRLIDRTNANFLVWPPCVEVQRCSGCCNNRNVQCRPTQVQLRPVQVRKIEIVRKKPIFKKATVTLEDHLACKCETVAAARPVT
B1 was tested, and the “hPDGF-BB IC50 (nM), hPDGF-BB-induced NIH-3T3 cell proliferation” value (“hPDGF-BB IC50 (nM)” for short) was under 10 nM.
With B2 the “hPDGF-BB IC50 (nM)” value was under 10 nM.
B3 was tested, and the “hPDGF-BB IC50 (nM)” value was 0.183 nM.
With B4 the “hPDGF-BB IC50 (nM)” value was 0.659 nM.
B5 was tested, and the “hPDGF-BB IC50 (nM)” value was 0.335 nM.
B6 was tested, and the “hPDGF-BB IC50 (nM)” value was 0.571 nM.

The binders below were run against T1, Human VEGF-A 165 (human, UniProt P15692 207-395) (assay: Biacore SPR (Example 1.1)).
T1 construct: also called hVEGF165; huVEGF-A165
T1 sequence (P15692 other isoform, or with tags, fused parts or gaps limits assumed): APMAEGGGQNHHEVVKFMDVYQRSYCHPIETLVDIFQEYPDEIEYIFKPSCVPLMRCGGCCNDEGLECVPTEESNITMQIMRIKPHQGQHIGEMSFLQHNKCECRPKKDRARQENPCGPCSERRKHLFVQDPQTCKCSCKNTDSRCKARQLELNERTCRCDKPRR
Method: Unreacted moieties on the biosensor surface were blocked with ethanolamine. For kinetic analysis, rate equations derived from the 1:1 Langmuir binding model were fitted simultaneously to multiple antigen injections (using global fit analysis) with the use of Scrubber 2 (BioLogic Software), Biacore Biaevaluation 4.0.1 software or Biacore T100 Evaluation software. Purified antibodies or DVD-Ig molecules were diluted in running buffer for capture across goat anti-human Fc reaction surfaces. Antibodies or DVD-Ig molecules to be captured as a ligand (1 μg/ml) were injected over reaction matrices at a flow rate of 10 μl/minute. During the assay, all measurements were referenced against the capture surface alone (i.e., with no captured antibody or DVD-Ig molecule). […] The equilibrium dissociation constant KD (M) of the reaction between antibodies and the target antigen was then calculated from the kinetic rate constants by the following formula: KD=Koff/Kₒₙ. Binding was recorded as a function of time and kinetic rate constants were calculated. In this assay, on-rates as fast as 10⁶M⁻¹s⁻¹ and off-rates as slow as 10⁻⁶ s⁻¹ could be measured. […]
In the case of B7, the Kd is reported as at most 0.00018 nM and the kon is reported as 5.5e+06 M⁻¹ s⁻¹.
B8 gave a Kd of 0.014 nM and a kon of 7e+06 M⁻¹ s⁻¹.
Binder B9 has a Kd of 0.014 nM and a kon of 6.7e+06 M⁻¹ s⁻¹.
B10 gave a Kd of 0.0074 nM and a kon of 1.8e+07 M⁻¹ s⁻¹.
B11 was tested, and the Kd was 0.0031 nM and the kon was 1.3e+07 M⁻¹ s⁻¹.
B12 showed a Kd of 0.0043 nM and a kon of 5.9e+06 M⁻¹ s⁻¹.
B13 gave a Kd of 0.011 nM and a kon of 2.4e+07 M⁻¹ s⁻¹.
In the case of B14, the Kd is reported as ≤ 0.00081 nM and 0.0012 nM and the kon is reported as ≥ 1e+07 M⁻¹ s⁻¹ and 1.4e+07 M⁻¹ s⁻¹.
For B15, the Kd was 0.06 nM and the kon was 1.8e+07 M⁻¹ s⁻¹.
For B16, the Kd was 0.016 nM and the kon was 4.4e+06 M⁻¹ s⁻¹.
Work on B17 yielded a Kd of 0.01 nM and a kon of 1.4e+07 M⁻¹ s⁻¹.
For B18, the Kd was 0.14 nM and the kon was 1e+07 M⁻¹ s⁻¹.
For B19, the Kd was 0.0039 nM and the kon was 1.2e+07 M⁻¹ s⁻¹.
